Source: paper PMC8897147 (Acta Pharmaceutica Sinica. B, 2021)

B1: RAMP3-Ypet (receptor activity-modulating protein 3) (natural protein)
chain: RAGGCNETGMLERLPLCGKAFADMMGKVDVWKWCNLSEFIVYYESFTNCTEMEANVVGCYWPNPLAQGFITGIHRQFFSNCTVDRVHLEDPPDEVLIPLIVIPVVLTVAMAGLVVWRSKRTDTLL
B2: RAMP1-Ypet (receptor activity-modulating protein 1) (natural protein)
chain: CQEANYGALLRELCLTQFQVDMEAVGETLWCDWGRTIRSYRELADCTWHMAEKLGCFWPNAEVDRFFLAVHGRYFRSCPISGRAVRDPPGSILYPFIVVPITVTLLVTALVVWQSKRTEGIV
B3: RAMP2-Ypet (receptor activity-modulating protein 2) (natural protein)
chain: QPLPTTGTPGSEGGTVKNYETAVQFCWNHYKDQMDPIEKDWCDWAMISRPYSTLRDCLEHFAELFDLGFPNPLAERIIFETHQIHFANCSLVQPTFSDPPEDVLLAMIIAPICLIPFLITLVVWRSKDSEAQA

How the values were obtained:
Assay in all cases: FRET or BRET
[1] = molecular target: secretin receptor-Rluc8 (UniProt P47872 23-440)
[2] = molecular target: glucagon receptor-Rluc8 (UniProt P47871 26-477)
[3] = molecular target: T1, glucagon-like peptide-2 receptor-Rluc8 (UniProt O95838 1-553)
T1 sequence: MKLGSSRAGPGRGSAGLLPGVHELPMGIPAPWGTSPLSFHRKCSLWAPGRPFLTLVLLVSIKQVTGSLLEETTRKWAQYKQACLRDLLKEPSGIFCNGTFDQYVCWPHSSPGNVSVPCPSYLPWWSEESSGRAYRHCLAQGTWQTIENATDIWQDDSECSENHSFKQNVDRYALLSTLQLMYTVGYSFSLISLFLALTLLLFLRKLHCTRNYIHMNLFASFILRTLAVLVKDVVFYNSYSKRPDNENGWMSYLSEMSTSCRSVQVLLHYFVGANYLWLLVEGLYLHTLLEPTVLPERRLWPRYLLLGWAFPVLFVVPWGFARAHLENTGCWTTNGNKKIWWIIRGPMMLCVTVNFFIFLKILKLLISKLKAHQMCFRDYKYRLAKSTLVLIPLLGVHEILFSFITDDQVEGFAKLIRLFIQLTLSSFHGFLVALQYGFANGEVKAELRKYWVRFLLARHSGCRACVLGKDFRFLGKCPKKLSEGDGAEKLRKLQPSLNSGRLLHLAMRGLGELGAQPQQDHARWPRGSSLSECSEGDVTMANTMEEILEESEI

[4] = molecular target: calcitonin-like receptor-Rluc8 (human, UniProt Q16602 23-461)
[5] = molecular target: T2, gastric inhibitory polypeptide receptor-Rluc8 (UniProt P48546 22-466)
T2 sequence: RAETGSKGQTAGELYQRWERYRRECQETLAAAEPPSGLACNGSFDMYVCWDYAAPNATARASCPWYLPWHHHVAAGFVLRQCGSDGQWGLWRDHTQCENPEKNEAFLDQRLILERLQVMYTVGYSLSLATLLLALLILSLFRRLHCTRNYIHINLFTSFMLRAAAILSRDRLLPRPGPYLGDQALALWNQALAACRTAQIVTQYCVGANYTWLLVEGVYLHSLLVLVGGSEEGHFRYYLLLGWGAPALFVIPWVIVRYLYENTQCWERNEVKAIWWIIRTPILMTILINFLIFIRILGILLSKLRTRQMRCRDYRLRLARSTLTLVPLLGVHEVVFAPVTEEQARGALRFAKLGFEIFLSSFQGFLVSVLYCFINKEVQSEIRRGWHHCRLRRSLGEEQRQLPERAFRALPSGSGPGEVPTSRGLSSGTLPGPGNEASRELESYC

[6] = molecular target: T3, growth hormone-releasing hormone receptor-Rluc8 (UniProt Q02643 23-423)
T3 sequence: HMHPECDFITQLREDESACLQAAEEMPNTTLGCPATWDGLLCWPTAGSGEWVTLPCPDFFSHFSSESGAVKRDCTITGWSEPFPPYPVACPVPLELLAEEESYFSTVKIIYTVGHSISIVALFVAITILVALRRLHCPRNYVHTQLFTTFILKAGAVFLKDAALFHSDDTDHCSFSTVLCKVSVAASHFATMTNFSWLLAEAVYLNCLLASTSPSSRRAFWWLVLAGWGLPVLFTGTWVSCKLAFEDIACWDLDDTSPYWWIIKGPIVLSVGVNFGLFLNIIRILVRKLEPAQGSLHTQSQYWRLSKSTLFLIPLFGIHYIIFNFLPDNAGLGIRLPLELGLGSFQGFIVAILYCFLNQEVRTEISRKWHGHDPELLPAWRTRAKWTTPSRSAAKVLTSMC

[7] = molecular target: glucagon-like peptide-1 receptor-Rluc8 (UniProt P43220 24-463)

Sequence of glucagon receptor-Rluc8 (P47871 26-477): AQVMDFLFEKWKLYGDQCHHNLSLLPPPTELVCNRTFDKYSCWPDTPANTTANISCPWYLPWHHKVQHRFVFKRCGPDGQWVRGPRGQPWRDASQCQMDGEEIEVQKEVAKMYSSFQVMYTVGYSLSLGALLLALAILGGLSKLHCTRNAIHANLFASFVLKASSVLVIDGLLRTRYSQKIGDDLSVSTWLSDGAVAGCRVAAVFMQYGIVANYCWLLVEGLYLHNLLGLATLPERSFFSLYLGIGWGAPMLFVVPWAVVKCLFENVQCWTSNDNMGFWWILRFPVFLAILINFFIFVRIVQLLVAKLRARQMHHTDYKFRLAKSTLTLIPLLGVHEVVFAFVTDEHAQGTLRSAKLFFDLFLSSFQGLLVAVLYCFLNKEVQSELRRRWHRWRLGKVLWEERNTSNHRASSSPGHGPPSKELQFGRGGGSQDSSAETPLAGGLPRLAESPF
Sequence of calcitonin-like receptor-Rluc8 (Q16602 23-461): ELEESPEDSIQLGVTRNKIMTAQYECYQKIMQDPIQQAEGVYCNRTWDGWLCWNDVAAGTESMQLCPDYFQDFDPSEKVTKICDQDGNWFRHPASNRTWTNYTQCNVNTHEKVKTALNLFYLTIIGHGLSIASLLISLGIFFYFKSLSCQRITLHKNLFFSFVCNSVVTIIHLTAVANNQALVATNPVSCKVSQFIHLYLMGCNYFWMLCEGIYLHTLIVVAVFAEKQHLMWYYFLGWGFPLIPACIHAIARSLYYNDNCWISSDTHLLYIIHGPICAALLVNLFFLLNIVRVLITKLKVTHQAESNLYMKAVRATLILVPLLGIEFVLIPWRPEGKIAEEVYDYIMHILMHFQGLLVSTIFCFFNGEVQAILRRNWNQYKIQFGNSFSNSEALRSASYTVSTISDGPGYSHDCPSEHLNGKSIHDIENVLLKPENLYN
Sequence of secretin receptor-Rluc8 (P47872 23-440): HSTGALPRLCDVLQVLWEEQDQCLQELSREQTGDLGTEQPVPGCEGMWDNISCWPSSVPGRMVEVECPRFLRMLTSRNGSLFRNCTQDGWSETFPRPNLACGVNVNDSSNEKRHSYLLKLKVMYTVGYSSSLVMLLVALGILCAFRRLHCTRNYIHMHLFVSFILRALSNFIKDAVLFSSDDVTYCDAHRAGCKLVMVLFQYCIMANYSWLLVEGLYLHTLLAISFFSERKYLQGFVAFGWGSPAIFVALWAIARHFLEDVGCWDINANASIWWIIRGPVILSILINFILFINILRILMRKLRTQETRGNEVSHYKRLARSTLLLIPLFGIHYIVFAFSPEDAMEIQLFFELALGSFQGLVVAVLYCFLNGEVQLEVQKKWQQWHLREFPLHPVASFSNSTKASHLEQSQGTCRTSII

| Binder | BRET50 (Kd) [1] | BRET50 (Kd) [2] | BRET50 (Kd) [3] | BRET50 (Kd) [4] | BRET50 (Kd) [5] | BRET50 (Kd) [6] | BRET50 (Kd) [7] |
| --- | --- | --- | --- | --- | --- | --- | --- |
| B1 | 1.63 intensity ratio of RAMP:receptor | 2.34 intensity ratio of RAMP:receptor | 1.66 intensity ratio of RAMP:receptor | 0.087 intensity ratio of RAMP:receptor | 0.352 intensity ratio of RAMP:receptor | 2.09 intensity ratio of RAMP:receptor | 1 intensity ratio of RAMP:receptor |
| B2 |  | 1.55 intensity ratio of RAMP:receptor |  | 0.077 intensity ratio of RAMP:receptor | 4.6 intensity ratio of RAMP:receptor |  |  |
| B3 |  | 1.65 intensity ratio of RAMP:receptor | 7.45 intensity ratio of RAMP:receptor | 0.114 intensity ratio of RAMP:receptor | 2.75 intensity ratio of RAMP:receptor | 0.893 intensity ratio of RAMP:receptor |  |
